{"source": "paper PMC2064158", "about": "(The Journal of Cell Biology, 2006)", "binders": {"B1": {"name": "ScMad2^wt (recombinant S. cerevisiae Mad2, wild type) (natural protein)", "chain": "MSQSISLKGSTRTVTEFFEYSINSILYQRGVYPAEDFVTVKKYDLTLLKTHDDELKDYIRKILLQVHRWLLGGKCNQLVLCIVDKDEGEVVERWSFNVQHISGNSNGQDDVVDLNTTQSQIRALIRQITSSVTFLPELTKEGGYTFTVLAYTDADAKVPLEWADSNSKEIPDGEVVQFKTFSTNDHKVGAQVSYKY"}, "B2": {"name": "ScMad2^ΔC (recombinant, six residues deleted from the C terminus) (domain or fragment)", "chain": "MSQSISLKGSTRTVTEFFEYSINSILYQRGVYPAEDFVTVKKYDLTLLKTHDDELKDYIRKILLQVHRWLLGGKCNQLVLCIVDKDEGEVVERWSFNVQHISGNSNGQDDVVDLNTTQSQIRALIRQITSSVTFLPELTKEGGYTFTVLAYTDADAKVPLEWADSNSKEIPDGEVVQFKTFSTNDHKVGA"}}, "key": {"[1]": {"target": "C-Mad2^wt–Cdc20^195–211 complex (S. cerevisiae, UniProt P40958;P26309)", "experiment": "SEC"}, "[2]": {"target": "B1", "experiment": "pull-down"}, "[3]": {"target": "T1, ScMad2^RQEA (recombinant, Arg126-Glu/Gln127-Ala) (S. cerevisiae, UniProt P40958 1-196, R126E | Q127A)", "T1 sequence": "B1 chain with R126E, Q127A", "experiment": "ITC"}, "AlexaFluor488-ScMad2^wt": {"target": "T2, AlexaFluor488-ScMad2^wt (S. cerevisiae, UniProt P40958 1-196, AlexaFluor488 succimidyl ester reactive dye, covalent, final dye/protein ratio ~0.5)", "T2 sequence": "B1 chain", "experiment": "SEC"}, "[4]": {"target": "B1", "experiment": "SEC"}, "AlexaFluor488-HsMad2^wt": {"target": "AlexaFluor488-HsMad2^wt (human, UniProt Q13257 1-205, AlexaFluor488, covalent)", "sequence (Q13257 whole entry)": "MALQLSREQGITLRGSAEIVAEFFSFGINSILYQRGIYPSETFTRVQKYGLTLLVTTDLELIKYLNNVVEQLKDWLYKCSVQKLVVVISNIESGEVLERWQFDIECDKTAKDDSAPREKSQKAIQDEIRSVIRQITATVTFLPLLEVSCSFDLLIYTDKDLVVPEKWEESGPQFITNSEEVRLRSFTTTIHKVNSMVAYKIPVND", "experiment": "SEC"}}, "note": "Changes are numbered by the printed parent chain."}
{"binder": "B1", "values": [{"measurement": "percent of total Mad2 in the dimer peak at a 4:1 Mad2/Cdc20^195–211 ratio", "setting": "[1]", "result": "~50", "unit": "%"}]}
{"binder": "IVFKQNVAEACGLDMNKRILQYMPEPP (domain or fragment)", "note": "[GST-ScCdc20^184–210]", "values": [{"measurement": "binding result", "setting": "[2]", "result": "binds"}]}
{"binder": "QLLQEKLEKLTKLKEKKIRILQLRDGPF (domain or fragment)", "note": "[GST-ScMad1^563–590]", "values": [{"measurement": "binding result", "setting": "[2]", "result": "binds"}]}
{"binder": "GLDMNKRILQYMPEPPK", "note": "[ScCdc20^195–211 synthetic peptide]", "values": [{"measurement": "binding result", "setting": "[3]", "result": "binds"}, {"measurement": "binding result", "setting": "AlexaFluor488-ScMad2^wt", "result": "binds"}]}
{"binder": "B2", "values": [{"measurement": "binding result", "setting": "[4]", "result": "binds"}]}
{"binder": "EHQKAWALNLNGFDVEEAKILRLSGKPQ", "note": "[HsCdc20^111–138 synthetic peptide]", "values": [{"measurement": "binding result", "setting": "AlexaFluor488-HsMad2^wt", "result": "binds"}]}
